Assay [1] addresses T1, human Fc-PD-L2 (R&D systems) (human, UniProt Q9BQ51 20-219).
T1 construct: Bought Fc fusion coated on the ELISA plate; also called human PD-L2; not shown: Fc part of the bought fusion protein
T1 sequence: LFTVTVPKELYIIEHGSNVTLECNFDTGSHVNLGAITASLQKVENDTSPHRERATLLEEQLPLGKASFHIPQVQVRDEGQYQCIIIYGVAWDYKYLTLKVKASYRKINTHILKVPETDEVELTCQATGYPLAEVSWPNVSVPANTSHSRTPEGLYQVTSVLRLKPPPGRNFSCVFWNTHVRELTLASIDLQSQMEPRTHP
Kind of assay: competition ELISA on coated human Fc-PD-L2; competitor biotinylated 24F.10C12. A general note: In an ELISA, binding on a coated surface is turned into a signal by an enzyme label.

The target in assay [2] is T1, human Fc-PD-L2 (R&D systems). Kind of assay: competition ELISA on coated human Fc-PD-L2; IC50 against mouse 24F.10C12.
In assay [3] the target is T2, human Fc-PD-L1 (R&D systems) (human, UniProt Q9NZQ7 19-239).
T2 construct: Bought Fc fusion coated on the ELISA plate; also called human PD-L1; not shown: Fc part of the bought fusion protein
Kind of assay: competition ELISA on coated human Fc-PD-L1; IC50 against mouse 29E.2A3.

The target in assay [4] is T2, human Fc-PD-L1 (R&D systems). The assay can be described thus: competition ELISA on coated human Fc-PD-L1; competitor biotinylated 29E.2A3.
The target of assay [5] is T3, human Fc-PD-1 (R&D systems) (human, UniProt Q15116 25-167).
T3 construct: Bought Fc fusion coated on the ELISA plate; also called human PD-1; not shown: Fc part of the bought fusion protein
Kind of assay: competition ELISA on coated human Fc-PD-1; competitor biotinylated EH12.2H7.

The target of assay [6] is T3, human Fc-PD-1 (R&D systems). Kind of assay: competition ELISA on coated human Fc-PD-1; IC50 against mouse EH12.2H7.

Data on 14 molecules can be found in US20110271358A1 (Dana-Farber, published 2011).

T2 sequence (Q9NZQ7 19-239 limits assumed): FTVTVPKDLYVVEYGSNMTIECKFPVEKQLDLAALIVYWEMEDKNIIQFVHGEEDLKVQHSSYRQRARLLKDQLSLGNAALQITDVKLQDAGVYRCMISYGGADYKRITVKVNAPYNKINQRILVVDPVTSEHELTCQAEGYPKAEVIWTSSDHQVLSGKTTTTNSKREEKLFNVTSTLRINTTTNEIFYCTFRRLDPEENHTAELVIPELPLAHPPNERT
T3 sequence (Q15116 25-167 limits assumed): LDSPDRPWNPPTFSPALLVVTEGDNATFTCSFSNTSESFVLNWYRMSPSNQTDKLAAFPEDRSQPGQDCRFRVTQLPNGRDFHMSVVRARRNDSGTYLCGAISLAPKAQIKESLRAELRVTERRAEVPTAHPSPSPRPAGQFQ

B1: mouse anti-human PD-L2 antibody 24F.10C12 (antibody, V domains shown)
VH: QVQLQQSAAELARPGASVKMSCKASGYTFTGYTMHWVKQRPGQGLEWIGYINPRSGYTEYNQKFKDKTTLTADKSSSTAYMQLSSLTSEDSAVYYCARPWFAYWGQGTLVTVSA
VL: DIVMTQSPSSLTVTAGEKVTMSCKSSQSLLNSGNQKNYLTWYQQKPGQPPKLLIYWASTRESGVPDRFTGSGSGTDFTLTISSVQAEDLAVYYCQNDYSYPLTFGAGTKLELK
notes: Mouse monoclonal antibody; also called Biotin-24F.10C12
In general, IC50 refers to the midpoint of a concentration-inhibition curve. For the molecule B1, in assay [1], the IC50 is 0.52 µg/mL.

B2: 24F.10C12 composite, human antibody VH2/VK2 (antibody, V domains shown)
VH: QVQLVQSGAEVKKPGASVKMSCKASGYTFTGYTMHWVKQAPGQGLEWIGYINPRSGYTEYNQKFKDRTTLTADKSTSTAYMELSSLRSEDTAVYYCARPWFAYWGQGTLVTVSS
VL: DIVMTQSPASLSVTPGEKVTITCKSSQSLLNSGNQKNYLTWYQQKPGQPPKLLIYWASTRESGVPDRFTGSGSGTDFTLTISSLQAEDVAVYYCQNDYSYPLTFGQGTKLEIK
notes: V regions cloned into vectors containing human constant regions (quantified against an IgG1/kappa standard; isotype not expressly stated)
Take B2: in assay [2], the “fold reduced binding compared to the mouse reference” value (“fold reduced binding” for short) was found to be 1.13 fold. This molecule also showed an IC50 in assay [1] of 0.58 µg/mL.

B3: 24F.10C12 composite, human antibody VH4/VK4 (antibody, V domains shown)
VH: QVQLVQSGAEVKKPGASVKVSCKASGYTFTGYTMHWVRQAPGQGLEWIGYINPRSGYTEYNQKFKDRTTLTADKSTSTAYMELSSLRSEDTAVYYCARPWFAYWGQGTLVTVSS
VL: DIVMTQSPAFLSVTPGEKVTITCKSSQSLLNSGNQKNYLTWYQQKPGQPPKLLIYWASTRESGVPDRFSGSGSGTDFTLTISSLQAEDVAVYYCQNDYSYPLTFGQGTKLEIK
notes: as for B2
Regarding B3, the “fold reduced binding” value in assay [2] amounted to 1.13 fold. Besides, in assay [1], the IC50 was 0.58 µg/mL.

B4: 24F.10C12 composite, human antibody VH4/VK2 (antibody, V domains shown)
VH: QVQLVQSGAEVKKPGASVKVSCKASGYTFTGYTMHWVRQAPGQGLEWIGYINPRSGYTEYNQKFKDRTTLTADKSTSTAYMELSSLRSEDTAVYYCARPWFAYWGQGTLVTVSS
VL: DIVMTQSPASLSVTPGEKVTITCKSSQSLLNSGNQKNYLTWYQQKPGQPPKLLIYWASTRESGVPDRFTGSGSGTDFTLTISSLQAEDVAVYYCQNDYSYPLTFGQGTKLEIK
notes: as for B2
Turning to B4, the “fold reduced binding” value in assay [2] worked out at 1.13 fold. In addition, the IC50 in assay [1] is 0.6 µg/mL.

B5: 24F.10C12 composite, human antibody VH2/VK3 (antibody, V domains shown)
VH: QVQLVQSGAEVKKPGASVKMSCKASGYTFTGYTMHWVKQAPGQGLEWIGYINPRSGYTEYNQKFKDRTTLTADKSTSTAYMELSSLRSEDTAVYYCARPWFAYWGQGTLVTVSS
VL: DIVMTQSPAFLSVTPGEKVTITCKSSQSLLNSGNQKNYLTWYQQKPGQPPKLLIYWASTRESGVPDRFTGSGSGTDFTLTISSLQAEDVAVYYCQNDYSYPLTFGQGTKLEIK
notes: as for B2
On to B5, for which the “fold reduced binding” value in assay [2] came out at 1.13 fold. For the same molecule, the IC50 in assay [1] came to 0.59 µg/mL.

B6: 29E.2A3 composite, human antibody VH2/VK2 (antibody, V domains shown)
VH: EVQLVQSGAEVKKPGASVKMSCKASGYTFTSYVMHWVKQAPGQRLEWIGYVNPFNDGTKYNEMFKGRATLTSDKSTSTAYMELSSLRSEDTAVYYCARQAWGYPWGQGTLVTVSS
VL: DIVLTQSPATLSLSPGERATLSCRATESVEYYGTSLVQWYQQKPGQPPKLLIYAASSVDSGVPSRFSGSGSGTDFTLTINSLEAEDAAMYFCQQSRRVPYTFGQGTKLEIK
notes: as for B2
In the case of B6, in assay [3], the “fold reduced binding” value is 1.75 fold. The molecule further displayed an IC50 in assay [4] of 0.49 µg/mL.

B7: 29E.2A3 composite, human antibody VH4/VK2 (antibody, V domains shown)
VH: EVQLVQSGAEVKKPGASVKVSCKASGYTFTSYVMHWVRQAPGQRLEWIGYVNPFNDGTKYNEMFKGRATLTSDKSTSTAYMELSSLRSEDTAVYYCARQAWGYPWGQGTLVTVSS
VL: DIVLTQSPATLSLSPGERATLSCRATESVEYYGTSLVQWYQQKPGQPPKLLIYAASSVDSGVPSRFSGSGSGTDFTLTINSLEAEDAAMYFCQQSRRVPYTFGQGTKLEIK
notes: as for B2
For B7, in assay [3], the “fold reduced binding” value is 1.36 fold. This molecule also showed an IC50 in assay [4] of 0.38 µg/mL.

B8: 29E.2A3 composite, human antibody VH2/VK1 (antibody, V domains shown)
VH: EVQLVQSGAEVKKPGASVKMSCKASGYTFTSYVMHWVKQAPGQRLEWIGYVNPFNDGTKYNEMFKGRATLTSDKSTSTAYMELSSLRSEDTAVYYCARQAWGYPWGQGTLVTVSS
VL: DIVLTQSPASLALSPGERATLSCRATESVEYYGTSLVQWYQQKPGQPPKLLIYAASSVDSGVPSRFSGSGSGTDFTLTINSLEEEDAAMYFCQQSRRVPYTFGQGTKLEIK
notes: as for B2
In assay [4], B8 gave an IC50 of 0.27 µg/mL.

B9: EH12.2H7 composite, human antibody VH3/VK3 (antibody, V domains shown)
VH: QVQLVQSGHEVKQPGASVKMSCKASGYSFTSSWIHWVKQAPGQGLEWIGYIYPSTGFTEYNQKFKDRATLTADKSTSTAYMELSSLRSEDTAVYYCARWRDSSGYHAMDYWGQGTLVTVSS
VL: EIVLTQSPATLSLSPGQRLTISCRASQSVSTSGYSYMHWYQQKPDQSPKLLIKFGSNLESGIPARFSGSGSGTDFTLTISSLEPEDFATYYCQHSWEIPYTFGQGTKLEIK
notes: as for B2
For the molecule B9, the IC50 in assay [5] worked out at 0.93 µg/mL.

B10: EH12.2H7 composite, human antibody VH3/VK4 (antibody, V domains shown)
VH: QVQLVQSGHEVKQPGASVKMSCKASGYSFTSSWIHWVKQAPGQGLEWIGYIYPSTGFTEYNQKFKDRATLTADKSTSTAYMELSSLRSEDTAVYYCARWRDSSGYHAMDYWGQGTLVTVSS
VL: DIVLTQSPATLSLSPGQRLTISCRASQSVSTSGYSYMHWYQQKPDQSPKLLIKFGSNLESGIPARFSGSGSGTDFTLTISSLEPEDFAVYYCQHSWEIPYTFGQGTKLEIK
notes: as for B2
For B10, the IC50 in assay [5] was determined as 0.74 µg/mL. This IC50 and that of the molecule before are within 1.5-fold of each other.

B11: EH12.2H7 composite, human antibody VH4/VK4 (antibody, V domains shown)
VH: QVQLVQSGHEVKQPGASVKMSCKASGYSFTSSWIHWVRQAPGQGLEWIGYIYPSTGFTEYNQKFKDRATLTADKSTSTAYMELSSLRSEDTAVYYCARWRDSSGYHAMDYWGQGTLVTVSS
VL: DIVLTQSPATLSLSPGQRLTISCRASQSVSTSGYSYMHWYQQKPDQSPKLLIKFGSNLESGIPARFSGSGSGTDFTLTISSLEPEDFAVYYCQHSWEIPYTFGQGTKLEIK
notes: as for B2
B11 yielded an IC50 in assay [5] of 0.91 µg/mL.

B12: EH12.2H7 composite, human antibody VH4/VK3 (antibody, V domains shown)
VH: QVQLVQSGHEVKQPGASVKMSCKASGYSFTSSWIHWVRQAPGQGLEWIGYIYPSTGFTEYNQKFKDRATLTADKSTSTAYMELSSLRSEDTAVYYCARWRDSSGYHAMDYWGQGTLVTVSS
VL: EIVLTQSPATLSLSPGQRLTISCRASQSVSTSGYSYMHWYQQKPDQSPKLLIKFGSNLESGIPARFSGSGSGTDFTLTISSLEPEDFATYYCQHSWEIPYTFGQGTKLEIK
notes: as for B2
As for B12, in assay [6], the “fold increase in binding compared to the mouse reference” value came out at 2 fold. In assay [5], the IC50 amounted to 0.57 µg/mL.

B13: mouse anti-human PD-1 antibody EH12.2H7 (antibody, V domains shown)
VH: QVQLQQSGAELAKPGASVQMSCKASGYSFTSSWIHWVKQRPGQGLEWIGYIYPSTGFTEYNQKFKDKATLTADKSSSTAYMQLSSLTSEDSAVYYCARWRDSSGYHAMDYWGQGTSVTVSS
VL: DIVLTQSPASLTVSLGQRATISCRASQSVSTSGYSYMHWYQQKPGQPPKLLIKFGSNLESGIPARFSGSGSGTDFTLNIHPVEEEDTATYYCQHSWEIPYTFGGGTKLEIK
notes: Mouse monoclonal antibody; also called Biotin-EH12.2H7
In assay [5], B13 yielded a half-maximal inhibitory concentration (IC50) of 1.23 µg/mL.

B14: mouse anti-human PD-L1 antibody 29E.2A3 (antibody, V domains shown)
VH: EVQLQQSGPELVKPGASVKMSCKASGYTFTSYVMHWVKQKPGQGLEWIGYVNPFNDGTKYNEMFKGKATLTSDKSSSTAYMELSSLTSEDSAVYYCARQAWGYPWGQGTLVTVSA
VL: DIVLTQSPASLAVSLGQRATISCRATESVEYYGTSLVQWYQQKPGQPPKLLIYAASSVDSGVPARFSGSGSGTDFSLTIHPVEEDDIAMYFCQQSRRVPYTFGGGTKLEIK
notes: Mouse monoclonal antibody; also called Biotin-29E.2A3
Consider B14, for which, in assay [4], the IC50 worked out at 0.28 µg/mL.
